Laboratory results reported in IntAct's records for PubMed 24036454.

B1: Protein GLUTAMINE DUMPER 1 (Arabidopsis thaliana (Mouse-ear cress)), O81775 (parent)
chain: MRPLSVQSKFEDVATSTSVNHHGVTPQSPWHSPVPYLFGGLAAMLGLIAFALLILACSYWRLSSSGEEDGQNVDEEKESRSGDKAANGAYEEKFLVIMAGEDLPRYLATPAMKKCTCGGHEGKMVISQEESVAKEEEKMREGEEEKVKDTGETTTTSH
partner: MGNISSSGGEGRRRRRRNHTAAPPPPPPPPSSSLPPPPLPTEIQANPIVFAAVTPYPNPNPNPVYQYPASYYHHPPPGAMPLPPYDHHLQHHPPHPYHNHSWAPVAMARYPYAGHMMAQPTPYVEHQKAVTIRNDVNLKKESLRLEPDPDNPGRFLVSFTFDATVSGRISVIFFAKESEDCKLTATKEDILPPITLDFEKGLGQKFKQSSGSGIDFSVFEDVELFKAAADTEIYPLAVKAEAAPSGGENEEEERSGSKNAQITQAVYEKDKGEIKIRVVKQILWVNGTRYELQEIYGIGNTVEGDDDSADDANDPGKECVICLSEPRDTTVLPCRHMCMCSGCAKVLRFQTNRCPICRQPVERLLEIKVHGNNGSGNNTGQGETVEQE
B2: Protein GLUTAMINE DUMPER 1 (Arabidopsis thaliana (Mouse-ear cress)), O81775 (parent)
chain: B1 chain
partner: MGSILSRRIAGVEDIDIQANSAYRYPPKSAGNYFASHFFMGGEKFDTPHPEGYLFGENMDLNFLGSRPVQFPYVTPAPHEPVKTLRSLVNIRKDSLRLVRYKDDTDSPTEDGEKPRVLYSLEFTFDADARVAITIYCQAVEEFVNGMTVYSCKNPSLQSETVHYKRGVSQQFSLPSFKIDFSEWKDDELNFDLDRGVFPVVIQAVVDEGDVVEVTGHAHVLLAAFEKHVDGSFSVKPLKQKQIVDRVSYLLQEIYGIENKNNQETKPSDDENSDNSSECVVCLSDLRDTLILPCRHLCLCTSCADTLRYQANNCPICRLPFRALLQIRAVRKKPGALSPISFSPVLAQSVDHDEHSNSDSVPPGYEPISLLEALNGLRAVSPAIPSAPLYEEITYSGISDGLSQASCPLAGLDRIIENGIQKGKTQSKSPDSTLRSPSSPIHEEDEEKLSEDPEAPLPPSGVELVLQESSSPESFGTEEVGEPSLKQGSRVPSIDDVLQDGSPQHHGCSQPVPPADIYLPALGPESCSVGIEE

Variants of: B1
Conditions: with lofg2_arath LOG2, Q9S752

effect of a mutation on the interaction	Variant
disrupting interaction	MRPLSVQSKFEDVATSTSVNHHGVTPQSPWHSPVPYLFGGLAAMLGLIAFALLILACSYWRLSSSGEEDGQNVDEEKESRSGDKAANGAYEEKFLVIMAREDLPRYLATPAMKKCTCGGHEGKMVISQEESVAKEEEKMREGEEEKVKDTGETTTTSH [G100R]

Variants of: B1
Conditions: with lofg2_arath LOG2, Q9S752
Remark: another data set of the same source

effect of a mutation on the interaction	Variant
disrupting interaction	MRPLSVQSKFEDVATSTSVNHHGVTPQSPWHSPVPYLFGGLAAMLGLIAFALLILACSYWRLSSSGEEDGQNVDEEKESRSGDKAANGAYEEKFLFFFFFEDLPRYLATPAMKKCTCGGHEGKMVISQEESVAKEEEKMREGEEEKVKDTGETTTTSH [V96F;I97F;M98F;A99F;G100F]

Variants of: B2
Conditions: with mgrn1_rat Mgrn1, Q5XIQ4

effect of a mutation on the interaction	Variant
disrupting interaction	MRPLSVQSKFEDVATSTSVNHHGVTPQSPWHSPVPYLFGGLAAMLGLIAFALLILACSYWRLSSSGEEDGQNVDEEKESRSGDKAANGAYEEKFLVIMAREDLPRYLATPAMKKCTCGGHEGKMVISQEESVAKEEEKMREGEEEKVKDTGETTTTSH [G100R]
